According to patent US12643935B2, “PD-L1 binding peptides” (UNIVERSITY OF SOUTHERN CALIFORNIA, priority 2020, dated 2026):
“Also recorded” adds a separate entry of the source. Where no end group is shown, it is not given here. [ ]: non-standard residue; d: D form. NMeNle = CCCC[C@H](NC)C(=O)O; NMeA = CN[C@@H](C)C(=O)O; Pra = C#CC[C@H](N)C(=O)O

Experiments:
hPD-L1 [1] = settings: known peptides; cited from earlier work
hPD-L1 [2] = target: T1, hPD-L1 (Homo sapiens, UniProt Q9NZQ7); experiment: Radioactive binding assay of second-generation clones on immobilized human PD-L1; set-up: target for immobilization and selection, the extracellular domain of hPD-L1 (from A18 to T239); hexahistidine tag (C); settings: 22° C., 2.5 or 12.5 pmol immobilized PD-L1
hPD-L1 [3] = target: T1, hPD-L1; experiment: Binding of second-generation fusions after RNase treatment and in 25% human serum; set-up: target for immobilization and selection, the extracellular domain of hPD-L1 (from A18 to T239); hexahistidine tag (C); settings: 22° C., 25 pmol PD-L1; for binding to hPD-L1 after RNase treatment: RNase A 30 min 37° C.; for binding to hPD-L1 in human serum: RNase-treated fusions in 25% human serum in DMEM
Procedure: The sequences identified from Sanger sequencing (A,B,C,D) were tested under binding conditions modified to be similar to physiological conditions and compared to the wildtype sequence (S) (FIG. 14). Sequences were prepared as fusions in standard blocking buffer, as RNase-treated fusions (RNase A treatment for 30 min. at 37° C.) in standard blocking buffer, or as RNase-treated fusions in 25% human serum in DMEM. Binding was measured at 22° C. with 0 and 25 pmol biotinylated PD-L1.

[4] = target: T2, hPD-L1 expressed on the surface of Chinese hamster ovary (CHO) cells (CHO-hPD-L1) (Homo sapiens, UniProt Q9NZQ7); experiment: Antibody titration by flow cytometry on CHO-hPD-L1 cells; assay type: cell-based; settings: 4° C., read-out: KD of Fluorescein-labeled antibody on CHO-hPD-L1
T2 construct: expressed in transfected cells; host or cells: CHO
Excerpt: (§1) To do this, we measured SPAM peptide inhibition of anti-PD-L1 antibody binding to hPD-L1 expressed on the surface of Chinese hamster ovary (CHO) cells (CHO-hPD-L1). […] Cells were washed again and analyzed by flow cytometry (FIG. 5B-C).

[5] = target: T3, CHO-mPD-L1 cells which express mPD-L1 (Mus musculus, UniProt Q9EP73); experiment: Antibody competition by flow cytometry on CHO-mPD-L1 cells; assay type: cell-based; settings: pre-treatment 0-20 μM, 50 nM antibody
T3 construct: expressed in transfected cells; host or cells: CHO
T3 sequence (Q9EP73 19-290): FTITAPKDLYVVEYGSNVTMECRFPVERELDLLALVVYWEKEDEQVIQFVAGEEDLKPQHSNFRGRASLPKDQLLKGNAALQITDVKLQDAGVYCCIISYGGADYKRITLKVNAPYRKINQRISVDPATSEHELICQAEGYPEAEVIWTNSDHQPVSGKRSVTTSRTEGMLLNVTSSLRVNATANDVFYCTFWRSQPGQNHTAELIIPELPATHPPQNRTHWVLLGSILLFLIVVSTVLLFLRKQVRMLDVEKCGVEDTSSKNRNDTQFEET
Procedure: We performed similar experiments with CHO-mPD-L1 cells which express mPD-L1 to determine if this effect was specific to hPD-L1 expression. We have developed two cross-reactive anti-hPD-L1/mPD-L1 antibodies, 16373 and 16377. These antibodies were labeled with Fluorescein, titrated against CHO-hPD-L1 and CHO-mPD-L1 cells (FIG. 12B-C) and subjected to competition experiments as described above.
The cells were washed once with cold serum free DMEM and incubated with 1 nM FAM-Atezolizumab, 10 nM FAM-Avelumab, 50 nM FAM-16373, or 50 nM FAM-16377 in serum free DMEM at 4° C. for 30 min. Cells were then washed three times with cold serum free DMEM. Cells were subsequently processed by flow cytometry with a BD FACSCalibur system using the FL1 channel. FlowJo v10.1 was used to gate to the major population and median FL1 fluorescence reported.

[6] = target: T2, hPD-L1 expressed on the surface of Chinese hamster ovary (CHO) cells (CHO-hPD-L1); experiment: Antibody competition by flow cytometry on CHO-hPD-L1 cells; assay type: cell-based; settings: pre-incubation 30 min 4° C., 0-20 μM; SPAM effect at 20 μM; 1 nM Atezolizumab, 10 nM Avelumab
Excerpt: as §1
Cells were then washed three times with cold serum free DMEM. Cells were subsequently processed by flow cytometry with a BD FACSCalibur system using the FL1 channel. FlowJo v10.1 was used to gate to the major population and median FL1 fluorescence reported.

| Substance | binding to immobilized human PD-L1 relative to parental SPAM (S) (hPD-L1 [2]) | Kd (hPD-L1 [1]) [nM] | other results |
| --- | --- | --- | --- |
| Cyclo[(AcPhe)NMeAla)NPHLSWSW(NMeNle)(NMeNle)RC]Gly-NH2 (Ac-F[NMeA]NPHLSWSW[NMeNle][NMeNle]RCG-NH2; bridge (positions not given here); also: cyclic, ring from residue 1 to Cys 14, linkage type not given here) [Peptide-57] |  |  | EC50 (hPD-L1 [1]): 566 nM; IC50 (hPD-L1 [1]): 9 nM |
| MWSRSDHNLNKFWILHYSANPS [Peptide 7] | better binding than the parental SPAM |  |  |
| SGQYASYHCWCWRDPGRSGGSK [TPP-1] |  | 95 |  |
| MYTDADHILNKFLIMHYARNQQ [Peptide 1] | better binding than the parental SPAM |  |  |
| MYSHNDHNLNKFWILHFAVNQM [Peptide B] | better binding than the parental SPAM |  | binding to hPD-L1 after RNase treatment (hPD-L1 [3]): significant net binding; also recorded: show binding; binding to hPD-L1 in human serum (hPD-L1 [3]): significant net binding; also recorded: show binding |
| WHFSYNWRWLPP [CLP003] |  | 117 | IC50 (hPD-L1 [1]): 2220 nM |
| Atezolizumab: hPD-L1 specific monoclonal antibody |  |  | Kd [4]: 0.2 nM |
| MKHSTDHVLNKFYIMHYTANPN [Peptide 9] | better binding than the parental SPAM |  |  |
| MYSLNDHNLNKFWILHFAVNQM [Peptide 5] | better binding than the parental SPAM |  |  |
| MYTSTDHILNKFLILHESLQST [Peptide 6] | better binding than the parental SPAM |  |  |
| MYSRVDHNLNKFWILHQALKSN [Peptide 8] | better binding than the parental SPAM |  |  |
| WHRSYYTWNLNT [CLP002] |  | 366 | IC50 (hPD-L1 [1]): 2170 nM |
| MYTLTDHILNKFWIMHYARNPT | comparable binding to the most frequent sequences; also recorded: better binding than the parental SPAM |  | binding to hPD-L1 after RNase treatment (hPD-L1 [3]): significant net binding; also recorded: show binding; binding to hPD-L1 in human serum (hPD-L1 [3]): significant net binding; also recorded: show binding |
| NYSKPTDRQYHF [D-PPA-1] |  | 510 |  |
| HYPFRPHANQAS [CLP001] |  | 534 |  |
| KHAHHTHNLRLP [D-PPA-2] |  | 1130 |  |
| DYHDPSLPTLRK [CLP004] |  | 544 | IC50 (hPD-L1 [1]): 1170 nM |
| Cyclo[(AcTyr)(NMeAla)NPHL(Hyp)WS(Trp(Me))(NMeNle) (NMeNle)(Orn)C]-Gly-NH2 (XXNPHLXWSXXXXCG; N-methyl; non-natural residues; cyclised or stapled) [WL-12] |  |  | blocking of Fluorescein-16373 and Fluorescein-16377 in CHO-mPD-L1 cells [5]: blocking was absent |
| MEFTSDHSLNKFIILHYANNPF [Peptide C] | comparable binding to the most frequent sequences; also recorded: better binding than the parental SPAM |  | binding to hPD-L1 after RNase treatment (hPD-L1 [3]): significant net binding; also recorded: show binding; binding to hPD-L1 in human serum (hPD-L1 [3]): significant net binding; also recorded: show binding |
| MWSITDHNLNKFWILHYATKHG | better binding than the parental SPAM |  | binding to hPD-L1 after RNase treatment (hPD-L1 [3]): significant net binding; also recorded: show binding; binding to hPD-L1 in human serum (hPD-L1 [3]): significant net binding; also recorded: show binding |
| MYTQTDHTLNKFLIMHEAFNST [Peptide 3] | better binding than the parental SPAM |  |  |
| Cyclo[(AcPhe)(NMePhe)(NMeNle)(Sar)DV(NMePhe)Y(Sar)WYLC-Gly-NH2 [Peptide-71] |  |  | EC50 (hPD-L1 [1]): 293 nM; IC50 (hPD-L1 [1]): 7 nM |
| YKLNLIHPHIFLMDWIFASG-Pra (YKLNLIHPHIFLMDWIFASG[Pra]-NH2; N-terminus assumed; SMILES C#CC[C@H](NC(=O)CNC(=O)[C@H](CO)NC(=O)[C@H](C)NC(=O)[C@H](Cc1ccccc1)NC(=O)[C@@H](NC(=O)[C@H](Cc1c[nH]c2ccccc12)NC(=O)[C@H](CC(=O)O)NC(=O)[C@H](CCSC)NC(=O)[C@H](CC(C)C)NC(=O)[C@H](Cc1ccccc1)NC(=O)[C@@H](NC(=O)[C@H](Cc1c[nH]cn1)NC(=O)[C@@H]1CCCN1C(=O)[C@H](Cc1c[nH]cn1)NC(=O)[C@@H](NC(=O)[C@H](CC(C)C)NC(=O)[C@H](CC(N)=O)NC(=O)[C@H](CC(C)C)NC(=O)[C@H](CCCCN)NC(=O)[C@@H](N)Cc1ccc(O)cc1)[C@@H](C)CC)[C@@H](C)CC)[C@@H](C)CC)C(N)=O) [SPAM-scramble, control scrambled peptide, reference compound] |  |  | Fluorescein-Atezolizumab and Fluorescein-Avelumab binding to CHO-hPD-L1 after pre-incubation [6]: not observed |
